# Columns and labels:
# [1] = molecular target: HLA-A*02:01; assay: IEDB peptide-MHC binding, purified MHC/competitive/fluorescence; ≥ and ≤ were set here for values at or beyond the usual limits of such assays; conditions: source organism: Zaire ebolavirus
# [2] = molecular target: HLA-A*24:02; assay: as above; conditions: source organism: Zaire ebolavirus
# [3] = molecular target: HLA-B*07:02; assay: as above; conditions: source organism: Zaire ebolavirus
# [4] = molecular target: HLA-A*02:03; assay: IEDB peptide-MHC binding, purified MHC/direct/fluorescence; filed as Kd, often an IC50 or EC50 that approximates it; ≥ and ≤ were set here for values at or beyond the usual limits of such assays; conditions: source organism: Convict Creek 107 virus
# [5] = molecular target: HLA-A*02:11; assay: as above; conditions: source organism: Convict Creek 107 virus
# [6] = molecular target: HLA-A*02:12; assay: as above; conditions: source organism: Convict Creek 107 virus
# [7] = molecular target: HLA-A*02:16; assay: as above; conditions: source organism: Convict Creek 107 virus
# [8] = molecular target: HLA-A*02:19; assay: as above; conditions: source organism: Convict Creek 107 virus
# [9] = molecular target: HLA-A*03:01; assay: as above; conditions: source organism: Convict Creek 107 virus
# [10] = molecular target: HLA-A*24:03; assay: as above; conditions: source organism: Convict Creek 107 virus
# [11] = molecular target: HLA-A*29:02; assay: as above; conditions: source organism: Convict Creek 107 virus
# [12] = molecular target: HLA-B*40:01; assay: as above; conditions: source organism: Orthohantavirus negraense
# [13] = molecular target: HLA-A*02:01; assay: IEDB peptide-MHC binding, purified MHC/competitive/fluorescence; filed as Kd, often an IC50 or EC50 that approximates it; ≥ and ≤ were set here for values at or beyond the usual limits of such assays; conditions: source organism: Orthohantavirus sinnombreense
# [14] = molecular target: HLA-A*26:01; assay: as above; conditions: source organism: Orthohantavirus sinnombreense
# [15] = molecular target: HLA-B*15:01; assay: as above; conditions: source organism: Orthohantavirus sinnombreense
# [16] = molecular target: HLA-B*15:17; assay: as above; conditions: source organism: Orthohantavirus sinnombreense
# [17] = molecular target: HLA-B*27:03; assay: as above; conditions: source organism: Orthohantavirus sinnombreense
# [18] = molecular target: HLA-B*46:01; assay: as above; conditions: source organism: Orthohantavirus sinnombreense
# [19] = molecular target: HLA-B*51:01; assay: as above; conditions: source organism: Orthohantavirus sinnombreense
# [20] = molecular target: HLA-B*57:01; assay: as above; conditions: source organism: Orthohantavirus sinnombreense
# [21] = molecular target: HLA-B*15:01; assay: IEDB peptide-MHC binding, purified MHC/competitive/fluorescence; ≥ and ≤ were set here for values at or beyond the usual limits of such assays; conditions: source organism: Zaire ebolavirus
# [22] = molecular target: HLA-A*03:01; assay: as above
# [23] = molecular target: HLA-A*11:01; assay: as above
# [24] = source organism: Zaire ebolavirus
# [25] = source organism: Vaccinia virus WR
# [26] = source organism: Vaccinia virus Copenhagen
sequence,measurement,setting,value
IVKTVLDHI,IC50,[1],≥ 91.6 µM
same,IC50,[2],6.71 µM
same,IC50,[3],≥ 170 µM
TEFFMSRKL,Kd,[4],≥ 20 µM
same,Kd,[5],≥ 20 µM
same,Kd,[6],≥ 20 µM
same,Kd,[7],≥ 20 µM
same,Kd,[8],≥ 20 µM
same,Kd,[9],≥ 20 µM
same,Kd,[10],≥ 20 µM
same,Kd,[11],≥ 20 µM
same,Kd,[12],0.0014 µM
same,Kd,[13],≥ 20 µM
same,Kd,[14],≥ 20 µM
same,Kd,[15],≥ 20 µM
same,Kd,[16],≥ 20 µM
same,Kd,[17],≥ 20 µM
same,Kd,[18],≥ 20 µM
same,Kd,[19],≥ 20 µM
same,Kd,[20],≥ 20 µM
KVSGTGPCA,IC50,[1],≥ 118 µM
same,IC50,[3],≥ 96.8 µM
QSVGHMMVI,IC50,[1],4.89 µM
same,IC50,[2],3.77 µM
same,IC50,[3],34.5 µM
same,IC50,[21],≥ 143 µM
HHAYQGDYK,IC50,[22]; [24],46 µM
same,IC50,[23]; [24],≥ 70.5 µM
KGYVVSRRG,IC50,[22]; [25],≥ 102 µM
LFPQLSAIA,IC50,[1],32.7 µM
same,IC50,[2],13.9 µM
same,IC50,[3],≥ 142 µM
GHGFRFEVK,IC50,[22]; [24],6.42 µM
same,IC50,[23]; [24],3.17 µM
TKITFALKK,IC50,[22]; [26],39.6 µM
same,IC50,[23]; [26],11.1 µM
AVIRANNNR,IC50,[22]; [25],5.9 µM
same,IC50,[23]; [25],2.16 µM
